Earlier results, collected in publication PMC4040926.

Target: SNARE complex (Rattus norvegicus) (UniProt P32851)
Assay: ITC

UniProt P32851, sequence (P32851 whole entry, chain 1 of 3): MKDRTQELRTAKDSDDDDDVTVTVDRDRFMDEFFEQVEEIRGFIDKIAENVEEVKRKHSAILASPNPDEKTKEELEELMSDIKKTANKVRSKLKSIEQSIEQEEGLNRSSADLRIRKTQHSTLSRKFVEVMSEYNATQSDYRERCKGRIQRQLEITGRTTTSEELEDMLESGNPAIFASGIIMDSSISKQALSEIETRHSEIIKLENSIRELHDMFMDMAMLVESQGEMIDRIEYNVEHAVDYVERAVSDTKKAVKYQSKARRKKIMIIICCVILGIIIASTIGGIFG
UniProt P32851, sequence (B2RAU4 whole entry, chain 2 of 3, further chain): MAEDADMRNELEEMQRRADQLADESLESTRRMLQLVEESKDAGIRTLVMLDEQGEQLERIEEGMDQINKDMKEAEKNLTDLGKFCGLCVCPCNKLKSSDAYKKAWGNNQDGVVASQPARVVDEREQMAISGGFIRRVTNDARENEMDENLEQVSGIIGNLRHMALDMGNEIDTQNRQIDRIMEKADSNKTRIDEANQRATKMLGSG
UniProt P32851, sequence (P63044 2-116, chain 3 of 3, further chain): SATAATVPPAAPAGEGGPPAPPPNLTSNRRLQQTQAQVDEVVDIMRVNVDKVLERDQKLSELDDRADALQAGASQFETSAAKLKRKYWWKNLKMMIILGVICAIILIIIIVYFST

With Complexin-I 26-83 (from UniProt P63041) as the substance, how does the Kd read?
Its Kd is 0.0253 µM.
